In the supplement of paper PMC11780869:

Test system: Bacillus subtilis
Test: cleaved RNA product abundance (RNA/gDNA barcode ratio) relative to median wild-type variant (ratio to wild type); higher = more accumulation of the downstream cleavage product
Details: experiment (reporter, strain, medium): exp 8a: truncated aprE reporter, strain BJT201 with 2% xylose (RNase J1 expressed); cleavage site: glnRA (positions -5 to +31 mutated)
Summary of the method: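 Oligos with a 9% error rate were used to build barcoded, mutagenized RNase Y cleavage-site windows within truncated aprE or tetM reporter mRNAs, which were integrated into the B. subtilis chromosome. Cultures were grown in LB at 37°C between OD600 0.0003 and 0.3. Cleaved RNA was gel-selected, reverse transcribed and barcode-sequenced, as were genomic DNA barcodes, and UMIs were collapsed. Cleaved product abundance is the scaled RNA:gDNA barcode ratio, with the median construct carrying the unmutated site as reference.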

Row | Sequence | cleaved RNA product abundance
1 | CGACATGTCCCGCTTCTTTCATTAATCCGTTACCAACTGTTATGCTATATACATTTACCTTTTAAGAGGAGGAAT | 0.307
2 | CGACATGTCCCGCTTCTTTCATTAATCCGTTACCAACTGTTGTGCTATATACATTTACCTTTTAAGAGGAGGAAT | 0.182
3 | CGACATGTCCCGCTTCTTTCATTAATCCGTTACCAACTGTTTAGCTATATACATTTACCTTTTAAGAGGAGGAAT | 0.208
4 | CGACATGTCCCGCTTCTTTCATTAATCCGTTACCAACTGTTTTACTATATACATTTACCTTTTAAGAGGAGGAAT | 0.204
5 | CGACATGTCCCGCTTCTTTCATTAATCCGTTACCAACTGTTTTCCTATATACATTTACCTTTTAAGAGGAGGAAT | 0.203
6 | CGACATGTCCCGCTTCTTTCATTAATCCGTTACCAACTGTTTTGATATATACATTTACCTTTTAAGAGGAGGAAT | 0.276
7 | CGACATGTCCCGCTTCTTTCATTAATCCGTTACCAACTGTTTTGCAATATACATTTACCTTTTAAGAGGAGGAAT | 0.26
8 | CGACATGTCCCGCTTCTTTCATTAATCCGTTACCAACTGTTTTGCCATATACATTTACCTTTTAAGAGGAGGAAT | 0.145
9 | CGACATGTCCCGCTTCTTTCATTAATCCGTTACCAACTGTTTTGCGATATACATTTACCTTTTAAGAGGAGGAAT | 0.264
10 | CGACATGTCCCGCTTCTTTCATTAATCCGTTACCAACTGTTTTGCTAAATACATTTACCTTTTAAGAGGAGGAAT | 0.169
11 | CGACATGTCCCGCTTCTTTCATTAATCCGTTACCAACTGTTTTGCTACATACATTTACCTTTTAAGAGGAGGAAT | 0.326
12 | CGACATGTCCCGCTTCTTTCATTAATCCGTTACCAACTGTTTTGCTATACACATTTACCTTTTAAGAGGAGGAAT | 0.212
13 | CGACATGTCCCGCTTCTTTCATTAATCCGTTACCAACTGTTTTGCTATATAAATTTACCTTTTAAGAGGAGGAAT | 0.163
14 | CGACATGTCCCGCTTCTTTCATTAATCCGTTACCAACTGTTTTGCTATATACAATTACCTTTTAAGAGGAGGAAT | 0.181
15 | CGACATGTCCCGCTTCTTTCATTAATCCGTTACCAACTGTTTTGCTATATACATCTACCTTTTAAGAGGAGGAAT | 0.23
16 | CGACATGTCCCGCTTCTTTCATTAATCCGTTACCAACTGTTTTGCTATATACATTAACCTTTTAAGAGGAGGAAT | 0.238
17 | CGACATGTCCCGCTTCTTTCATTAATCCGTTACCAACTGTTTTGCTATATACATTTAACTTTTAAGAGGAGGAAT | 0.282

Row | Sequence | cleaved RNA product abundance
18 | CGACATGTCCCGCTTCTTTCATTAATCCGTTACCAACTGTTTTGCTATATACATTTACATTTTAAGAGGAGGAAT | 0.209
19 | CGACATGTCCCGCTTCTTTCATTAATCCGTTACCAACTGTTTTGCTATATACATTTACCGTTTAAGAGGAGGAAT | 0.173
20 | CGACATGTCCCGCTTCTTTCATTAATCCGTTACCAACTGTTTTGCTATATACATTTACCTTTTAAGAGGAGGAAT | 0.255
21 | CGACATGTCCCGCTTCTTTCATTAATCCGTTACCAACTGTTTTGCTATATACATTTACTTTTTAAGAGGAGGAAT | 0.208
22 | CGACATGTCCCGCTTCTTTCATTAATCCGTTACCAACTGTTTTGCTATATACATTTATCTTTTAAGAGGAGGAAT | 0.306
23 | CGACATGTCCCGCTTCTTTCATTAATCCGTTACCAACTGTTTTGCTATATACATTTCCCTTTTAAGAGGAGGAAT | 0.127
24 | CGACATGTCCCGCTTCTTTCATTAATCCGTTACCAACTGTTTTGCTATATACATTTTCCTTTTAAGAGGAGGAAT | 0.231
25 | CGACATGTCCCGCTTCTTTCATTAATCCGTTACCAACTGTTTTGCTATATACCTTTACCTTTTAAGAGGAGGAAT | 0.153
26 | CGACATGTCCCGCTTCTTTCATTAATCCGTTACCAACTGTTTTGCTATATACGTTTACCTTTTAAGAGGAGGAAT | 0.253
27 | CGACATGTCCCGCTTCTTTCATTAATCCGTTACCAACTGTTTTGCTATATACTTTTACCTTTTAAGAGGAGGAAT | 0.145
28 | CGACATGTCCCGCTTCTTTCATTAATCCGTTACCAACTGTTTTGCTATATAGATTTACCTTTTAAGAGGAGGAAT | 0.226
29 | CGACATGTCCCGCTTCTTTCATTAATCCGTTACCAACTGTTTTGCTATATATATTTACCTTTTAAGAGGAGGAAT | 0.212
30 | CGACATGTCCCGCTTCTTTCATTAATCCGTTACCAACTGTTTTGCTATATCCATTTACCTTTTAAGAGGAGGAAT | 0.206
31 | CGACATGTCCCGCTTCTTTCATTAATCCGTTACCAACTGTTTTGCTATTTACATTTACCTTTTAAGAGGAGGAAT | 0.118
32 | CGACATGTCCCGCTTCTTTCATTAATCCGTTACCAACTGTTTTGTTATATACATTTACCTTTTAAGAGGAGGAAT | 0.231
33 | CGACATGTCCCGCTTCTTTCATTAATCCGTTACCAACTGTTTTTCTATATACATTTACCTTTTAAGAGGAGGAAT | 0.234
